Results reported in paper PMC4475061.
Values belong to the binder of their own block, whether it stands above or below them.

What was measured:
[1] = target: other ESCRT-III proteins; assay: fluorescence polarisation; data not shown; other ESCRT-III proteins
[2] = target: T1, ULK3 fused to the VP16 activation domain, Q6PHR2; assay: yeast two-hybrid (β-galactosidase activity); conditions: chain shown with the change;; parent: est. 0.66; read off a plot
T1 chain: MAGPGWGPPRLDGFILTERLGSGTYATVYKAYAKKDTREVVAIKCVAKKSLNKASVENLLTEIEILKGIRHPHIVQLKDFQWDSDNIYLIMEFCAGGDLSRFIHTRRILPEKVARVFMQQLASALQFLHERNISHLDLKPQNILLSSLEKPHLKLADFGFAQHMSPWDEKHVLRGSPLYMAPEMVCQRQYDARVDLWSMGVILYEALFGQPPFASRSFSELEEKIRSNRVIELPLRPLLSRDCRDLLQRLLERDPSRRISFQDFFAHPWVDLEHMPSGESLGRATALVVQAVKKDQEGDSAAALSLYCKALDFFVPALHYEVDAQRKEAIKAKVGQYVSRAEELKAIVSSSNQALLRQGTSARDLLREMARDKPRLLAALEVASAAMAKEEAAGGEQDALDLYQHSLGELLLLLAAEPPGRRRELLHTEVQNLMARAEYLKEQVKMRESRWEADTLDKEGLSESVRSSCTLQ

Kd [1]: 100 µM
B1: ULK3(MIT)2 (residues 277–449) (domain or fragment)
chain: GPHMSGESLGRATALVVQAVKKDQEGDSAAALSLYCKALDFFVPALHYEVDAQRKEAIKAKVGQYVSRAEELKAIVSSSNQALLRQGTSARDLLREMARDKPRLLAALEVASAAMAKEEAAGGEQDALDLYQHSLGELLLLLAAEPPGRRRELLHTEVQNLMARAEYLKEQVKMRES

response [2]: 0.5
B2: CHMP1B WT fused to the Gal4 DNA-binding domain, Q7LBR1 T178R; A181R; E184R (protein)
chain: MSNMEKHLFNLKFAAKELSRSAKKCDKEEKAEKAKIKKAIQKGNMEVARIHAENAIRQKNQAVNFLRMSARVDAVAARVQTAVTMGKVTKSMAGVVKSMDATLKTMNLEKISALMDKFEHQFETLDVQTQQMEDTMSSTTTLTTPQNQVDMLLQEMADEAGLDLNMELPQGQTGSVGRSVRSARQDELSQRLARLRDQV
